Substitutions are numbered along the chain they refer to. One block for each binder: values may come before it.
Key:
[1] = biological target: recombinant murine PDGF-BB (mouse, UniProt P31240 82-190); assay: cell-based or functional assay
[2] = biological target: T1, Human VEGF-A 165 (human, UniProt P15692 207-395); assay: receptor competition ELISA, hVEGF165 binding to coated hVEGF-R2-Fc
T1 construct: Recombinant; also called huVEGF-A165; hVEGF165
Experimental: (§1) To identify molecules that could block the binding of hVEGF₁₆₅ to the hVEGF-R2 (KDR/Flk-1) receptor, a competition ELISA was performed. […] Plates were then washed four times with wash buffer (TBS, 0.05% Tween-20) and blocked with Superblock blocking buffer (Thermo Scientific, cat#37535). […] The pre-incubated sample/hVEGF₁₆₅ complex was added to the coated plate at 50 μL in duplicate and incubated for 30 minutes at 25° C. with shaking. Following incubation, plates were washed four times with wash buffer. Streptavidin-polyHRP-40 (Fitzgerald cal#65r-s104phrp) was diluted in assay diluent (10% Superblock containing 0.05% surfactamps) and added to plates (50 μL) for 45 minutes at 25° C. with shaking. Plates were washed four times with wash buffer and developed with the addition of Enhanced K-blue TMB substrate (Neogen cat#308177). The reaction was stopped with 2N sulfuric acid (VWR, cat# BDH3500-1) and the absorbance was read at 450 nm-570 nm. A decrease in observed optical density indicates the test molecule is blocking the hVEGF₁₆₅ binding to the hVEGF-R2-Fc. Data was analyzed using Softmax Pro 4.8 software and IC₅₀ values calculated using a sigmoidal dose response (variable slope) fit in GraphPad Prism 5.
Anti-VEGF-A antibodies derived from rat hybridomas were characterized for binding, function and cross-reactivity in a panel of assays. Supernatants were tested for the ability to bind hVEGF₁₆₅ (Example 1.3) and block binding of hVEGF₁₆₅ to hVEGFR2 in a competition ELISA format (Example 1.4).

[3] = biological target: T2, recombinant human VEGF165 (human, UniProt P15692 207-395); assay: cell-based or functional assay
T2 sequence (P15692 other isoform, or with tags, fused parts or gaps limits assumed): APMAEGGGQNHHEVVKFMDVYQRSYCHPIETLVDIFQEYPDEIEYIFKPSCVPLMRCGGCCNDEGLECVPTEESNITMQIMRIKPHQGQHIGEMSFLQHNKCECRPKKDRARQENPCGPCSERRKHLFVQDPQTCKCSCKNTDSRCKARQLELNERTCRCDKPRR

[4] = biological target: T2, recombinant human VEGF165; assay: SPR (Biacore), antibody captured by anti-human Fc, hVEGF165 in solution
Experimental: Unreacted moieties on the biosensor surface were blocked with ethanolamine. For kinetic analysis, rate equations derived from the 1:1 Langmuir binding model were fitted simultaneously to multiple antigen injections (using global fit analysis) with the use of Scrubber 2 (BioLogic Software), Biacore Biaevaluation 4.0.1 software or Biacore T100 Evaluation software. Purified antibodies or DVD-Ig molecules were diluted in running buffer for capture across goat anti-human Fc reaction surfaces. Antibodies or DVD-Ig molecules to be captured as a ligand (1 μg/ml) were injected over reaction matrices at a flow rate of 10 μl/minute. During the assay, all measurements were referenced against the capture surface alone (i.e., with no captured antibody or DVD-Ig molecule). […] The equilibrium dissociation constant KD (M) of the reaction between antibodies and the target antigen was then calculated from the kinetic rate constants by the following formula: KD=Koff/Kₒₙ. Binding was recorded as a function of time and kinetic rate constants were calculated. In this assay, on-rates as fast as 10⁶M⁻¹s⁻¹ and off-rates as slow as 10⁻⁶ s⁻¹ could be measured.
(§2) Affinity matured humanized anti-VEGF antibodies were characterized for hVEGF₁₆₅ binding and potency. Binding affinity of these molecules to hVEGF₁₆₅ was determined by Biacore analysis (Example 1.1). Potency was evaluated in both cell-based and ELISA formats. The ability to block binding of hVEGF₁₆₅ to hVEGFR2 was evaluated in a competition ELISA (Example 1.4) Inhibition of hVEGF₁₆₅-induced cell proliferation was assessed using HMVEC-d cells (Example 1.10).

[5] = biological target: T2, recombinant human VEGF165; assay: competition ELISA: antibody titrated against biotinylated hVEGF165, binding to plate-coated hVEGF-R2-Fc
Experimental: as §1, §2

T1 sequence (P15692 other isoform, or with tags, fused parts or gaps limits assumed): as above
recombinant murine PDGF-BB, sequence (P31240 82-190 limits assumed): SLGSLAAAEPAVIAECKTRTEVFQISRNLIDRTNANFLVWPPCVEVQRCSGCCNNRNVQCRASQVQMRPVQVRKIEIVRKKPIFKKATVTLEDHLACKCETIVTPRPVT

B1: 4G8.3-SL-9E8.4E anti-VEGF-A/anti-PDGF-BB DVD-Ig (PR-1575834) (bispecific antibody, human IgG1, kappa, L234A L235A)
heavy: EVQLVQSGSELKKPGASVKVSCKASGYTFTNYGMYWVRQAPGQGLEWMGWINTETGKPTYADDFKGRFVFSLDTSVSTAYLQISSLKAEDTAVYYCARTNYYYRSYIFYFDYWGQGTMVTVSSASTKGPEVTLRESGPALVKPTQTLTLTCTFSGFSLSTYGMGVGWIRQPPGKALEWLANIWWDDDKYYNPSLKNRLTISKDTSKNQVVLTMTNMDPVDTATYYCARIESIGTTYSFDYWGQGTMVTVSSASTKGPSVFPLAPSSKSTSGGTAALGCLVKDYFPEPVTVSWNSGALTSGVHTFPAVLQSSGLYSLSSVVTVPSSSLGTQTYICNVNHKPSNTKVDKKVEPKSCDKTHTCPPCPAPEAAGGPSVFLFPPKPKDTLMISRTPEVTCVVVDVSHEDPEVKFNWYVDGVEVHNAKTKPREEQYNSTYRVVSVLTVLHQDWLNGKEYKCKVSNKALPAPIEKTISKAKGQPREPQVYTLPPSREEMTKNQVSLTCLVKGFYPSDIAVEWESNGQPENNYKTTPPVLDSDGSFFLYSKLTVDKSRWQQGNVFSCSVMHEALHNAYTQKSLSLSPGK
light: DTVLTQSPATLSLSPGERATLSCRASESVSTHMHWYQQKPGQAPRLLIYGASNLESGVPARFSGSGSGTDFTLTISSLEPEDFAVYFCQQSWNDPFTFGQGTKLEIKRTVAAPSVFIFPPEFVLTQSPGTLSLSPGERATLSCERSSGDIGESYVSWYQQKPGQAPRLVIYADDQRPSGIPDRFSGSGSGTDFTLTISRLEPEDFAVYYCQSYDINIDIVFGGGTKVEIKRTVAAPSVFIFPPSDEQLKSGTASVVCLLNNFYPREAKVQWKVDNALQSGNSQESVTEQDSKDSTYSLSSTLTLSKADYEKHKVYACEVTHQGLSSPVTKSFNRGEC
- Potency IC50 (nM) mPDGF-BB (NIH-3T3 proliferation) [1]: 0.772 nM

B2: BEW-164-C4 (antibody, IgG2b, V domains shown)
VH: QIQLVQSGPELKKPGESVKISCKASGYSFTNYGMYWVKQAPGQGLQYMGWIDTETGKPTYTDDFKGRFVFFLETSASTAYLQINNLKNEDMATYFCARWSGDTAGIRGPWFAYWGQGTLVTVSS
VL: DIRMTQSPASLSASLGETVNIECLASEDIYSDLAWYQQKPGKSPQLLIYNANDLQKGVPSRFSGSGSGTQYSLKINSLQSEDVATYFCQQYNYYPGTFGAGTKLELK
notes: Rat hybridoma antibody, isotype IgG2b/kappa; also called BEW-1B4-C4
- IC50 [2]: 0.18 nM

B5: CL-34455-IgG (antibody, V domains shown)
VH: EVQLVQSGSELKKPGASVKVSCKASGYTFTNYGMYWVRQAPGQGLEWMGWIDTETGEPTYAQGFTGRFVFSLDTSVSTAYLQISSLKAEDTAVYYCARTNYYYPSYMFYFDYWGQGTMVTVSS
VL: EIVLTQSPATLSLSPGERATLSCRASQSVGTHMHWYQQKPGQAPRLLIYGASKLESGVPARFSGSGSGTDFTLTISSLEPEDFAVYYCQQSWYDPLTFGQGTKLEIK
notes: also called h4G8 CL-34455
- hVEGF165 IC50 (nM), Potency HMVEC-d (hVEGF165-induced proliferation) [3]: 0.105 nM
- Kd [4]: 0.46 pM
- kon [4]: 2.2e+07 M⁻¹ s⁻¹
- IC50 [5]: < 0.1 nM

B8: CL-34565-IgG (antibody, V domains shown)
VH: B5 VH with N31D, E57D, Q62D, G63D, T65K, P104R, S105N
VL: B5 VL with S22F, G30S, T31N, K53I, L96I
notes: also called h4G8 CL-34565
- hVEGF165 IC50 (nM), Potency HMVEC-d (hVEGF165-induced proliferation) [3]: 0.126 nM
- Kd [4]: 0.4 pM
- kon [4]: 2e+07 M⁻¹ s⁻¹
- IC50 [5]: < 0.1 nM

Continued, values first:

- IC50 [2]: 0.274 nM
B3: BEW-9E10-E7 (antibody, IgG2a, V domains shown)
VH: B2 VH with V5L, S28T, K57R, T61A, A104T
VL: B2 VL with K42R, D53G, K56N, S63G, Y94F
notes: Rat hybridoma antibody, isotype IgG2a/kappa

- hVEGF165 IC50 (nM), Potency HMVEC-d (hVEGF165-induced proliferation) [3]: 0.117 nM
- Kd [4]: 0.54 pM
- kon [4]: 2e+07 M⁻¹ s⁻¹
- IC50 [5]: < 0.1 nM
B4: CL-32416-IgG (antibody, V domains shown)
VH: B5 VH with N31D, Q62D, G63D, T65K, P104R
VL: B5 VL with Q27E, G30S, K53N, Y87F, Y93N, L96F
notes: also called h4G8 CL-32416

- hVEGF165 IC50 (nM), Potency HMVEC-d (hVEGF165-induced proliferation) [3]: 0.11 nM
- Kd [4]: 0.29 pM
- kon [4]: 1.9e+07 M⁻¹ s⁻¹
- IC50 [5]: < 0.1 nM
B6: CL-34570-IgG (antibody, V domains shown)
VH: B5 VH with T30D, N31D, E57T, Q62D, G63D, T65K, P104S
VL: B5 VL with G30S, K53N, V58I
notes: also called h4G8 CL-34570

- hVEGF165 IC50 (nM), Potency HMVEC-d (hVEGF165-induced proliferation) [3]: 0.139 nM
- Kd [4]: 0.85 pM
- kon [4]: 8.4e+06 M⁻¹ s⁻¹
- IC50 [5]: < 0.1 nM
B7: CL-34540-IgG (antibody, V domains shown)
VH: B5 VH with N31D, E57Q, Q62D, G63D, T65K, P104R
VL: B5 VL with Q27E, T31K, G50A, K53N
notes: also called h4G8 CL-34540

- hVEGF165 IC50 (nM), Potency HMVEC-d (hVEGF165-induced proliferation) [3]: 0.077 nM
- Kd [4]: 0.85 pM
- kon [4]: 1.1e+07 M⁻¹ s⁻¹
- IC50 [5]: < 0.1 nM
B9: CL-34449-IgG (antibody, V domains shown)
VH: B5 VH with N31D, Q62D, G63D, T65K, P104R
VL: B5 VL with K53H, V58I, S91T
notes: also called h4G8 CL-34449

Reference: patent US20170015742A1 (published 2017)
